Assay results: US20110142849A1

Molecular target: recombinant human Pcsk9 (aa 31-692) with C-terminal his6 tag (human) (UniProt Q8NBP7)
Assay: TR-FRET, disruption of hLDL-R-Eu and hPcsk9-AF

Sequence of recombinant human Pcsk9 (aa 31-692) with C-terminal his6 tag (human) (Q8NBP7 other isoform, or with tags, fused parts or gaps limits assumed, form in doubt): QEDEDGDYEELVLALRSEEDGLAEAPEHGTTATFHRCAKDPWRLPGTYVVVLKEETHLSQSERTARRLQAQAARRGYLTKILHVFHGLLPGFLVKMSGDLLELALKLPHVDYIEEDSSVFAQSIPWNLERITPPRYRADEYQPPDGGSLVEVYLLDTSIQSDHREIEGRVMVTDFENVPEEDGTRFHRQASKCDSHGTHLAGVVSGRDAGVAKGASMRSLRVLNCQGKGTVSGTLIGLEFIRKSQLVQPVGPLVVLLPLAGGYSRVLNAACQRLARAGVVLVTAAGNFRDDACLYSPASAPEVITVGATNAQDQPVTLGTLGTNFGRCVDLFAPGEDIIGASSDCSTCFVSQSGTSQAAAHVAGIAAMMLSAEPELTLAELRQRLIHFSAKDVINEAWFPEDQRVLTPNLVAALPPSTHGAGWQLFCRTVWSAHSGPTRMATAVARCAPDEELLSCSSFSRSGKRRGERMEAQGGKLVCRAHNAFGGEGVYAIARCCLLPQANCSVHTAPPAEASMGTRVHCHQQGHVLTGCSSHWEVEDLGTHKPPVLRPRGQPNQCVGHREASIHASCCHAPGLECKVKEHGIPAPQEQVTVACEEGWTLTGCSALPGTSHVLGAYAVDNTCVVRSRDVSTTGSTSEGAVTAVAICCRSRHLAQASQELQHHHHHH

In the case of EGF-A peptide, the IC50 is reported as 2.5 µM.
